The supplement of paper PMC9732359
± gives the uncertainty stated by the source.

Experiment: protein stability index of a GFP-peptide fusion (yeast GPS) (PSI 1-4); higher = more stable; sorted into four equal gates, so the index is relative within each strain
How it was run: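 Tiled 17-residue yeast protein peptides were fused downstream of GFP in a plasmid that also expresses Cherry, and the pooled library was carried in yeast. Mid-log cultures in leucine-free medium were sorted into four equal gates by GFP/Cherry fluorescence ratio, and plasmids from each gate were PCR-amplified and Illumina-sequenced, with reads assigned to strains by barcodes. The protein stability index for each peptide was each gate's read frequency times its gate number, summed.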

Sequence	protein stability index (doa10∆)	protein stability index (pdr5∆)	protein stability index (san1∆)	protein stability index (ubr1∆)
KSLEDLSCQYDNTVRTS [RPO31]	1.3 ± 0.19	1.31 ± 0.14	–	–
VLCTRLRLSNFFTIDHF [SIR2]	2.19 ± 0.064	1.5 ± 0.057	1.5 ± 0.097	1.28 ± 0.033
LSRGDDEVTIRRTVGLK [SMC3]	3.17 ± 0.096	2.73 ± 0.083	2.77 ± 0.078	2.55 ± 0.063
LESINEGNQIIVFVHSR [BRR2]	1.76 ± 0.073	1.88 ± 0.064	1.62 ± 0.066	1.76 ± 0.071
DDHNGEVWSVSWNLTGT [YGL100W/SEH1]	2.73 ± 0.069	3.04 ± 0.073	2.64 ± 0.096	2.73 ± 0.085
RVGVVSILEAGDSDILT [RPL30]	3.1 ± 0.057	2.97 ± 0.074	2.98 ± 0.07	3.03 ± 0.058
ILDFGPGGASGLGVLTH [FAS1]	2.82 ± 0.082	2.74 ± 0.092	–	2.84 ± 0.2
MSGYDRALSIFSPDGHI [PRE6]	2.82 ± 0.12	2.38 ± 0.14	2.76 ± 0.09	2.69 ± 0.077
MSGSLKSLDKKIAKRRQ [POP3]	3.19 ± 0.24	2.98 ± 0.21	–	3.5 ± 0.2
AVIESVVNQPTGKIVDV [FAS1]	2.49 ± 0.097	2.57 ± 0.14	2.52 ± 0.089	2.39 ± 0.08
NPSYPGMMSTTGTARLN [YJL039C/NUP192]	2.97 ± 0.097	3.1 ± 0.053	3.13 ± 0.077	3.24 ± 0.076
LLRALKTNEESAKMILL [PRP8]	3.05 ± 0.099	2.98 ± 0.1	2.86 ± 0.071	2.92 ± 0.037
DGTEYVLSSVREPDFWV [MED6]	3.49 ± 0.13	–	–	2.67 ± 0.12
DKKEMTIYNNIREGQNQ [SIR3]	3.21 ± 0.056	3.37 ± 0.07	3.02 ± 0.041	3.27 ± 0.034
VYPITLSTDATSADLKS [UBP6]	2.32 ± 0.063	2.53 ± 0.063	2.49 ± 0.078	2.4 ± 0.059
NNMNVNMNLNPQMFLNQ [GAL11]	2.14 ± 0.043	2.56 ± 0.046	2.46 ± 0.048	2.48 ± 0.035
VKALRNVPGVETANVAS [RPL4A]	2.76 ± 0.069	3.15 ± 0.062	2.98 ± 0.051	3.01 ± 0.048
RVNGSEFVHKYLGEGPR [RPT3]	2.45 ± 0.057	2.88 ± 0.063	2.79 ± 0.056	3 ± 0.061
NENNSNGGEDTSVENEG [REC8]	3.31 ± 0.14	3.44 ± 0.14	3.05 ± 0.15	3.07 ± 0.089
PQIVVPDAQNELPKFIL [DIS3]	2.9 ± 0.049	3.09 ± 0.06	2.92 ± 0.043	2.98 ± 0.077
LDSGDDQPQSSEAKRTK [BRR2]	3.31 ± 0.057	3.26 ± 0.057	3.25 ± 0.048	3.25 ± 0.043
HLLRQTNAFLDSLTRAV [SNF2]	2.61 ± 0.061	2.6 ± 0.066	2.69 ± 0.044	2.65 ± 0.033
KSIQDIVGLATLIVNTD [SRP21]	2.85 ± 0.054	3.05 ± 0.05	2.93 ± 0.039	2.97 ± 0.037
EHWKVRNFKKANLVNKE [BRN1]	2.06 ± 0.1	1.5 ± 0.051	1.54 ± 0.13	1.83 ± 0.05
NWRKQKGIDSVVRRRFR [RPL32]	2.56 ± 0.1	2.66 ± 0.17	–	2.28 ± 0.18

Sequence	protein stability index (doa10∆)	protein stability index (pdr5∆)	protein stability index (san1∆)	protein stability index (ubr1∆)
TKFQTTDRESYPRLQDP [YCS4]	3 ± 0.072	3.15 ± 0.055	3.13 ± 0.079	3.05 ± 0.074
RCYQPFELFDNKTAHLS [SNU114]	2.27 ± 0.1	2.71 ± 0.08	2.53 ± 0.061	2.24 ± 0.041
LGKRINSAVNNAISNTQ [SRP54]	2.46 ± 0.099	3.19 ± 0.12	2.91 ± 0.096	3.12 ± 0.097
TQLQICLDQMTEQFCAT [SRB7]	2.74 ± 0.063	2.88 ± 0.065	2.54 ± 0.08	2.52 ± 0.052
IKNISNRVGLTLDNIDD [ARP9]	2.65 ± 0.24	3.03 ± 0.11	3.16 ± 0.091	3.32 ± 0.073
GVAMNPVDHPHGGGNHQ [RPL2A]	2.9 ± 0.27	–	–	3.25 ± 0.14
NNVVINFKDMSHVNKYG [PRP8]	2.64 ± 0.1	2.6 ± 0.079	2.75 ± 0.059	2.57 ± 0.075
VTDDPIWMRGHGTYFLD [RRP4]	3.22 ± 0.067	3.17 ± 0.078	3.47 ± 0.056	3.07 ± 0.065
TVTLNKNREVVQVSKAG [RRP45]	2.8 ± 0.092	2.98 ± 0.075	2.76 ± 0.065	2.82 ± 0.065
NVDKNLNEIKEHKIVVL [RPN14]	2.39 ± 0.085	2.38 ± 0.069	2.42 ± 0.1	2.74 ± 0.1
RARLKGKEGRIRGNLMG [RPO21]	3.37 ± 0.097	3.19 ± 0.12	3.32 ± 0.088	2.96 ± 0.081
KLLNDLALENGEITKTE [NUT1]	3.13 ± 0.15	3.09 ± 0.22	2.78 ± 0.2	3.18 ± 0.086
RNAEFKVSKNSTSFKNP [YMR153W/NUP53]	2.79 ± 0.093	2.13 ± 0.062	2.14 ± 0.1	2.46 ± 0.076
VDYGGAEWSLVRIYSGL [SNU114]	–	–	–	3.66 ± 0.18
GRPRYDTFGEGIIITDQ [BRR2]	3.02 ± 0.15	2.85 ± 0.14	2.62 ± 0.14	3.11 ± 0.11
GINPNTFRIFHNHDTGC [YDL088C/ASM4]	1.83 ± 0.073	1.85 ± 0.082	1.4 ± 0.15	1.44 ± 0.047
RWEMEAFGEFSLEGCVE [FAS2]	3.28 ± 0.17	3.36 ± 0.16	2.98 ± 0.095	2.83 ± 0.14
QGNYVTEDIREGDQAEV [YMR129W/POM152]	3.49 ± 0.086	3.32 ± 0.073	3.3 ± 0.066	3.39 ± 0.083
PIPVQGEIEIKPNEEEE [RPN13]	2.45 ± 0.081	2.59 ± 0.067	2.58 ± 0.15	2.67 ± 0.1
QPSYNSAIIENAFRKEE [GAL11]	2.86 ± 0.086	2.68 ± 0.091	2.74 ± 0.077	2.76 ± 0.055
LPDPILKNFLSYESLKK [MCD1]	3 ± 0.094	3.14 ± 0.091	3.34 ± 0.046	3.37 ± 0.058
SEEIDSLNEDVEEIKLQ [SMC2]	3.19 ± 0.12	3.41 ± 0.14	2.94 ± 0.097	3.25 ± 0.077
SREAVRHFGMGPHKGKA [RPL18A]	3.22 ± 0.19	2.8 ± 0.12	3.04 ± 0.098	3.66 ± 0.16
SSKLVDVYTLPSYVHFK [YML103C/NUP188]	1.82 ± 0.047	1.61 ± 0.046	1.69 ± 0.061	1.46 ± 0.036
GRETILSNFNADINLEE [SIR3]	3.14 ± 0.094	3.17 ± 0.11	2.85 ± 0.067	2.99 ± 0.07

Sequence	protein stability index (doa10∆)	protein stability index (pdr5∆)	protein stability index (san1∆)	protein stability index (ubr1∆)
LKSTKHSISEAENMLEE [SMC4]	3.06 ± 0.081	2.87 ± 0.12	3.06 ± 0.077	3.11 ± 0.05
IPGLSAGVNNDNTKESK [RTT102]	3.59 ± 0.11	3.52 ± 0.083	3.38 ± 0.071	3.35 ± 0.081
LVKIDDLSANQRETMKE [SMC1]	3.29 ± 0.083	3.22 ± 0.091	3 ± 0.11	3.45 ± 0.089
KAKRQINSGTNSANGSS [SSN3]	2.52 ± 0.057	2.68 ± 0.058	2.92 ± 0.057	2.91 ± 0.046
EEDADQEESFSLNLGIG [SRB8]	3.2 ± 0.14	3.01 ± 0.27	2.94 ± 0.17	–
GGSRGGGSNYMSNLPFG [RPC31]	2.94 ± 0.27	3.21 ± 0.18	–	3.14 ± 0.17
INYLLTLAITTVTNSKF [RPN2]	2.22 ± 0.062	2.91 ± 0.078	2.1 ± 0.074	2.67 ± 0.067
ETFSTSAHQSPIMQTQM [SNF2]	3.17 ± 0.077	2.8 ± 0.072	3.28 ± 0.062	3.15 ± 0.04
HNHDTGCDENDSTVNKS [YDL088C/ASM4]	3.2 ± 0.09	3.2 ± 0.079	3.3 ± 0.057	3.05 ± 0.068
ENTVGLISGAGANPRVL [RPN10]	1.72 ± 0.052	1.46 ± 0.057	1.86 ± 0.085	1.4 ± 0.044
ILEDYCYFRDFEYCRID [ISW2]	2.56 ± 0.13	1.35 ± 0.077	1.4 ± 0.11	1.35 ± 0.038
QWSIEIVLLDDEGKEIP [TAF14]	1.99 ± 0.06	2.1 ± 0.06	2.71 ± 0.066	2.75 ± 0.068
SIKDTQNVGQGKLQRKE [BRN1]	1.96 ± 0.1	2.56 ± 0.081	1.94 ± 0.11	2.7 ± 0.049
QPVNPKPFLKGLVNHRV [SMX3]	3.07 ± 0.054	3.09 ± 0.057	3.16 ± 0.041	3.06 ± 0.055
EKVTIAPLVLLSALDHY [RPN8]	1.62 ± 0.033	1.63 ± 0.031	1.42 ± 0.06	1.48 ± 0.029
EHFSDEETYEEKPQFKD [RPO26]	3.51 ± 0.1	3.35 ± 0.2	3.25 ± 0.15	3.34 ± 0.1
RLKFGHRLIATHTNLER [SNF2]	2.41 ± 0.064	2.04 ± 0.054	2.29 ± 0.067	2.5 ± 0.045
TDLGKDIPFFPSSEKPN [SSN2]	2.7 ± 0.059	2.9 ± 0.077	2.57 ± 0.11	3.07 ± 0.037
IDWASPEYGRIIASASY [YGL100W/SEH1]	2.8 ± 0.064	3.16 ± 0.053	3.09 ± 0.054	2.71 ± 0.055
DFNQAFEGTDDNEEASV [BRN1]	3.09 ± 0.14	3.17 ± 0.13	3.39 ± 0.15	3.53 ± 0.12
NVRSSVLQKVIEWAEHH [SKP1]	2.4 ± 0.096	2.91 ± 0.11	2.4 ± 0.085	2.03 ± 0.099
PQLISDKFSPEDGLGPL [ARP7]	2.84 ± 0.072	2.83 ± 0.067	2.6 ± 0.062	2.61 ± 0.055
VKVARLAGKYIPNLTAK [FAS1]	3.34 ± 0.25	2.58 ± 0.22	–	3.03 ± 0.14
MGQIATFIYFAYFLIIV [COB]	1.63 ± 0.053	1.29 ± 0.046	1.16 ± 0.098	1.11 ± 0.026
